Here are results for 40 variants from the supplement of paper PMC6755084.

First the molecules themselves.
B1: minF1; the commonest letter at each place (parent)
chain: GAGACCGCAACTGAAAAGTTGTTATCAGAAATGGATGGGTTGAATTTCTGCACGTAGAAGCAAAAGGC

The variants in the data set derive from B1. The data set can be described thus: fraction ligated after 30 min (ligated reads / total reads); higher = more ligase activity. To be noted: with F1*subA RNA substrate (template-directed ligation), 42 °C. As for the experimental part: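 Chip-synthesised pool of minF1 ligase ribozyme variants (single and double substitutions, single to quadruple deletions, bulge and P2 designed variants) was transcribed with T7 and reacted as a pool with excess substrate F1*subA for 30 min at 42 C in 50 mM EPPS pH 8.5, 25 mM MgCl2. Ligated and unligated RNAs were separated by PAGE, barcoded by RT and deep sequenced; fraction ligated = ligated reads / total reads, relative activity = FL / FL of wild-type minF1 (0.76); sequencing FL correlated with PAGE (R2 = 0.98). Sequences are the DNA template of the ribozyme.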
For the variant GAGACCGCAACTGAAAAGTTGTTATTAGAAATTGATGGGTTGAATTTCTGCACGTAGAAGCAAAAGGC, the fraction ligated came out at 0.206.
Consider GAGACCGCAACTGAAAAGTTGTTATCAGGAATGGATCGGTTGAATTTCTGCACGTAGAAGCAAAAGGC, for which the fraction ligated was 0.0058.
Consider GAGACCGCAACTGAAAAGTTGTTATCAGAATTGTATGGGTTGAATTTCTGCACGTAGAAGCAAAAGGC, for which the fraction ligated was found to be 0.0067.
Regarding GAGACCGCAACTGAAAAGTTGTTATCAGAAAGGGATAGGTTGAATTTCTGCACGTAGAAGCAAAAGGC, the fraction ligated was 0.00205.
As for GAGACCGCAACTGAAAAGTTGTTAACAGTAATGGATGGGTTGAATTTCTGCACGTAGAAGCAAAAGGC, the fraction ligated is 0.015.
Turning to GAGACCGCAACTGAAAAGTTGTTATCAGAAATTGAGGGGTTGAATTTCTGCACGTAGAAGCAAAAGGC, the fraction ligated came out at 0.0372.
Take GAGACCGCAACTGAAAAGTTGTAAGCAGAAATGGATGGGTTGAATTTCTGCACGTAGAAGCAAAAGGC: the fraction ligated amounted to 0.00615.
As for GAGACCGCAACTGAAAAGTTGTTTTCAGAAATAGATGGGTTGAATTTCTGCACGTAGAAGCAAAAGGC, the fraction ligated came out at 0.0223.
On to GAGACCGCAACTGAAAAGTTGTTTTCAGAAATCGATGGGTTGAATTTCTGCACGTAGAAGCAAAAGGC, for which the fraction ligated was determined as 0.00781.
Regarding GAGACCGCAACTGAAAAGTTGTTATCAGGAATGGCTGGGTTGAATTTCTGCACGTAGAAGCAAAAGGC, the fraction ligated was found to be 0.0139.
GAGACCGCAACTGAAAAGTTGTTATCAGAATTGGATGGGTTTAATTTCTGCACGTAGAAGCAAAAGGC: the fraction ligated worked out at 0.193.
The result for GAGACCGCAACTGAAAAGTTGTTATCCGAAATGGATGGGTTGGATTTCTGCACGTAGAAGCAAAAGGC reads 0.0284; that for GAGACCGCAACTGAAAAGTTGTTATCATAAATGAATGGGTTGAATTTCTGCACGTAGAAGCAAAAGGC, 0.141; that for GAGACCGCAACTGAAAAGTTGTTATCATAAATGTATGGGTTGAATTTCTGCACGTAGAAGCAAAAGGC, 0.00519.
As to GAGACCGCAACTGAAAAGTTGTTATCTGAAATGGCTGGGTTGAATTTCTGCACGTAGAAGCAAAAGGC, the fraction ligated came to 0.406.
Then GAGACCGCAACTGAAAAGTTGTTATCAGAAATTGATCGGTTGAATTTCTGCACGTAGAAGCAAAAGGC, with 0.00397; and GAGACCGCAACTGAAAAGTTGTTATGCGAAATGGATGGGTTGAATTTCTGCACGTAGAAGCAAAAGGC, with 0.0501.
The result for GAGACCGCAACTGAAAAGTTGTGATCGGAAATGGATGGGTTGAATTTCTGCACGTAGAAGCAAAAGGC reads 0.795.
Consider GAGACCGCAACTGAAAAGTTGTTATCAGAAATGGACGGGTTAAATTTCTGCACGTAGAAGCAAAAGGC, for which the fraction ligated was 0.00494.
In the case of GAGACCGCAACTGAAAAGTTGTTAACAGAAATGGATGGGTTGACTTTCTGCACGTAGAAGCAAAAGGC, the fraction ligated came to 0.00273.
For GAGACCGCAACTGAAAAGTTGTTATCAGATATTGATGGGTTGAATTTCTGCACGTAGAAGCAAAAGGC, the fraction ligated turned out to be 0.387.
As to GAGACCGCAACTGAAAAGTTGTTATCAGCAATGGATGGGTTGCATTTCTGCACGTAGAAGCAAAAGGC, the fraction ligated worked out at 0.0193.
The result for GAGACCGCAACTGAAAAGTTGTTATAAGAAATGCATGGGTTGAATTTCTGCACGTAGAAGCAAAAGGC reads 0.00194; that for GAGACCGCAACTGAAAAGTTGTTATCAGAAATGGATGGGTTGTGTTTCTGCACGTAGAAGCAAAAGGC, 0.00469; that for GAGACCGCAACTGAAAAGTTGTTTTCCGAAATGGATGGGTTGAATTTCTGCACGTAGAAGCAAAAGGC, 0.105.
In the case of GAGACCGCAACTGAAAAGTTGTTTTCGGAAATGGATGGGTTGAATTTCTGCACGTAGAAGCAAAAGGC, the fraction ligated stood at 0.0839.
On to GAGACCGCAACTGAAAAGTTGTCATCATAAATGGATGGGTTGAATTTCTGCACGTAGAAGCAAAAGGC, for which the fraction ligated stood at 0.326.
Then GAGACCGCAACTGAAAAGTTGTTATCAGAAAAGGATGGGTTGATTTTCTGCACGTAGAAGCAAAAGGC, with 0.163; and GAGACCGCAACTGAAAAGTTGTTATCAGAAGTGGATGGGTTGACTTTCTGCACGTAGAAGCAAAAGGC, with 0.71.
Consider GAGACCGCAACTGAAAAGTTGTTATCAGAACTGGATCGGTTGAATTTCTGCACGTAGAAGCAAAAGGC, for which the fraction ligated came to 0.00598.
As to GAGACCGCAACTGAAAAGTTGTTGTCAGAAATGGATGGGTTGGATTTCTGCACGTAGAAGCAAAAGGC, the fraction ligated is 0.00288.
Then GAGACCGCAACTGAAAAGTTGTTATCGGAAATAGATGGGTTGAATTTCTGCACGTAGAAGCAAAAGGC, with 0.814; and GAGACCGCAACTGAAAAGTTGTTATCAAAAGTGGATGGGTTGAATTTCTGCACGTAGAAGCAAAAGGC, with 0.799; and GAGACCGCAACTGAAAAGTTGTTATCAGAAATGGCTGGGTTGACTTTCTGCACGTAGAAGCAAAAGGC, with 0.00567.
Then GAGACCGCAACTGAAAAGTTGTTATGAGAAATGGATGGGTTAAATTTCTGCACGTAGAAGCAAAAGGC, with 0.00168; and GAGACCGCAACTGAAAAGTTGTTAGCAGAAATGGATGGGTTGGATTTCTGCACGTAGAAGCAAAAGGC, with 0.00372; and GAGACCGCAACTGAAAAGTTGTTATCAGAACTGGAGGGGTTGAATTTCTGCACGTAGAAGCAAAAGGC, with 0.0226.
The result for GAGACCGCAACTGAAAAGTTGTTATCAGAAATGTGTGGGTTGAATTTCTGCACGTAGAAGCAAAAGGC reads 0.0067; that for GAGACCGCAACTGAAAAGTTGTTATCAGAAATGTATGGGTTGATTTTCTGCACGTAGAAGCAAAAGGC, 0.00748.
For GAGACCGCAACTGAAAAGTTGTTATCAGACATGGATGGGTTGAATTTCTGCACGTAGAAGCAAAAGGC, the fraction ligated amounted to 0.806.
